Reference: IntAct's records for PubMed 29039417

B1: Protein PTHB1 (Homo sapiens), Q3SYG4 (parent)
chain: MSLFKARDWWSTILGDKEEFDQGCLCLANVDNSGNGQDKIIVGSFMGYLRIFSPHPAKTGDGAQAEDLLLEVDLRDPVLQVEVGKFVSGTEMLHLAVLHSRKLCVYSVSGTLGNVEHGNQCQMKLMYEHNLQRTACNMTYGSFGGVKGRDLICIQSMDGMLMVFEQESYAFGRFLPGFLLPGPLAYSSRTDSFLTVSSCQQVESYKYQVLAFATDADKRQETEQQKLGSGKRLVVDWTLNIGEQALDICIVSFNQSASSVFVLGERNFFCLKDNGQIRFMKKLDWSPSCFLPYCSVSEGTINTLIGNHNNMLHIYQDVTLKWATQLPHIPVAVRVGCLHDLKGVIVTLSDDGHLQCSYLGTDPSLFQAPNVQSRELNYDELDVEMKELQKIIKDVNKSQGVWPMTEREDDLNVSVVVSPNFDSVSQATDVEVGTDLVPSVTVKVTLQNRVILQKAKLSVYVQPPLELTCDQFTFEFMTPDLTRTVSFSVYLKRSYTPSELEGNAVVSYSRPTDRNPDGIPRVIQCKFRLPLKLICLPGQPSKTASHKITIDTNKSPVSLLSLFPGFASQSDDDQVNVMGFHFLGGARITVLASKTSQRYRIQSEQFEDLWLITNELILRLQEYFEKQGVKDFACSFSGSIPLQEYFELIDHHFELRINGEKLEELLSERAVQFRAIQRRLLARFKDKTPAPLQHLDTLLDGTYKQVIALADAVEENQGNLFQSFTRLKSATHLVILLIALWQKLSADQVAILEAAFLPLQEDTQELGWEETVDAAISHLLKTCLSKSSKEQALNLNSQLNIPKDTSQLKKHITLLCDRLSKGGRLCLSTDAAAPQTMVMPGGCTTIPESDLEERSVEQDSTELFTNHRHLTAETPRPEVSPLQGVSE
partner: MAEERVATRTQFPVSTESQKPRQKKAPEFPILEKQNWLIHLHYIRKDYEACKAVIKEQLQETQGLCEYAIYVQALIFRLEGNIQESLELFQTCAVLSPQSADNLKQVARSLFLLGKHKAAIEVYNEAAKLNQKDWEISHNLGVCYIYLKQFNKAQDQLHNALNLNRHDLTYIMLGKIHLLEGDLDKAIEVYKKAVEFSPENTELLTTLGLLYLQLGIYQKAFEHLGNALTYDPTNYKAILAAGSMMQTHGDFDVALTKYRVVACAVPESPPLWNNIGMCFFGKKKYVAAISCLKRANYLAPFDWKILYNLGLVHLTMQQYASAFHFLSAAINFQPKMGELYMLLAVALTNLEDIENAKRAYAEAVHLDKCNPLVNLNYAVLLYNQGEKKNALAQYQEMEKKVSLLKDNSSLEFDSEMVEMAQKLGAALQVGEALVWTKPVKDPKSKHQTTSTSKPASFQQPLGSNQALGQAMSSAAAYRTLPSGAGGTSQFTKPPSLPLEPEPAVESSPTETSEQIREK

Variants of: B1
Details: with bbs4_human BBS4, Q96RK4

| Variant | effect of a mutation on the interaction |
| --- | --- |
| P479K | with no effect |
| E664K | with no effect |
| H651A | with no effect |
| G701A | with no effect |
| T428K | with no effect |
| F684E | with no effect |
| R600E | with no effect |
| L870E | with no effect |
| R521K | with no effect |
| Q760K | with no effect |
| F756E | with no effect |
| I707K | with no effect |
| H811A | with no effect |
| L736K | with no effect |
| H694Y | disrupting interaction strength |
| A832K | with no effect |
| Q539A | with no effect |
| Q539E | with no effect |
| I601E | with no effect |
| L481A | with no effect |
| C469K | with no effect |
| P511K | with no effect |
| E769A | with no effect |

| Variant | effect of a mutation on the interaction |
| --- | --- |
| D700A | with no effect |
| D700E | with no effect |
| L559K | with no effect |
| S558A | with no effect |
| A690K | disrupting interaction strength |
| N796E | with no effect |
| N796A | with no effect |
| G518E | with no effect |
| Y703A | with no effect |
| Y599E | with no effect |
| L744A | with no effect |
| I640E | with no effect |
| V437A | with no effect |
| T688A | with no effect |
| A739K | disrupting interaction strength |
| R510E | with no effect |
| A504E | with no effect |
| Q569K | with no effect |
| Q705A | with no effect |
| L733K | with no effect |
| Q677E | with no effect |
| D422A | with no effect |
| W768A | with no effect |

| Variant | effect of a mutation on the interaction |
| --- | --- |
| S806K | with no effect |
| I735E | with no effect |
| E625A | with no effect |
| D517E | with no effect |
| V772K | disrupting interaction strength |
| V772E | disrupting interaction strength |
| G502K | with no effect |
| Q597A | with no effect |
| A833K | with no effect |
| T552K | with no effect |
| L795K | with no effect |
| I550A | with no effect |
| K821E | with no effect |
| T844K | with no effect |
| C816K | with no effect |
| N515A | with no effect |
| F864K | with no effect |
| S423K | with no effect |
| P464E | with no effect |
| K728A | with no effect |
| L709K | with no effect |
| D573A | with no effect |
| L662A | with no effect |

| Variant | effect of a mutation on the interaction |
| --- | --- |
| I846E | with no effect |
| F673E | with no effect |
| S828A | with no effect |
| R483K | with no effect |
| L536K | with no effect |
| T731E | disrupting interaction strength |
| G767K | with no effect |
| S603N | disrupting interaction strength |
| R868A | with no effect |
| V424A | with no effect |
| Q807E | with no effect |
| R656E | with no effect |
| L531K | with no effect |
| P463E | with no effect |
| F636E | with no effect |
| P881A | with no effect |
| D686E | with no effect |
| F563E | with no effect |
| F487K | with no effect |
| K554A | with no effect |
| I657A | with no effect |
| I657K | with no effect |
